Laboratory results from the DeepSol protein solubility set.

Assay: soluble on expression in E. coli; label from the status in PepcDB or PDB records

Soluble on expression in E. coli, not soluble:
MGSDKIHHHHHHMQQLFVQLLEERYFNRLPEALVLKFATESADFVRFWLVHCMRSMVSERELAIALFFSAEWELEELASLKSFWGSYVAMEEAQEVKATFCHFVPWLKTISPHHEDAICVFSALWFFEHRPTSVGKQLQSATLSHSQLPVSLLDDIKLFSLPHLRPITVYGHQGKGSVESGIRNNMHYPTPIPNDNLAMACVERVIAKFAGIKLAFAEPIVVLRYEPGQFYQWHYDAIHAYTAEIQAELERFGQRSRTAILYLNDDFEGGETEFKAPYIQVKPETAAILVFDNTDQTGKPIPSSLHRGCEVTAGKKWVCTQWFRDKPFWLRAGLLA
MGSDKIHHHHHHMQRFKKWFLSIIKNFKQHEKIKIDLNNTKIDLNNTKIDLNNTKIDLNNTKIDLNNTKIDLNNTKIDLNNTKIDLNNTKIDLNNTKIELSQLKKEHYKVLDFHLRKITPQAFLEIVEIHLAESCNLNCFGCNHFSQIAEKEFPDIEIFKKDMQRLSEISKGIVGTFRLMGGEPLLNPNCIQFFDITRYFFPKSAIWLVTNGILLDKQNEDFWNSCQRNKMQIRPTKYPIKINWDLIKDKCDQYDIPLIFFNNGELEKTSWKFSLDPSGNCDNYHSFTNCSMANHCVQFKDGKLFTCTFPAHVQHFNKKYGNHFEVCEFDFIDIYKAKDYQEILFFLSKPIPFCRYCKVSQWAEIGKWRSSNKTKHEYLI
MGSDKIHHHHHHMQVLVVDYTAKDAAEKFVQSLHETGFAVLVNHPIKQSLVESIYKNWQEFFLSEEKHAFAFDPVKQDGYFSSEISETAKGHSKKDIKEYFHVYPWGRIPAQLNDEIFEYYRLASELAAELLDWVEEYSPADIADKYSETLSNMIKETPNTLLRILHYPPLTGNEEAGAVRAASHEDINLLTILPAANEPGLQVQRQNGEWIDVPSDFGNLIINIGDMLQETSAGYFPSTSHRVINPTGKGSDKSRISLPLFLHPRSEVVLSDKHTQASYLLERLRELGVKV
MGSDKIHHHHHHMRALSFIFIALILVGCNEPAKEITKPIRPIMWTKVKISPFEQIRTLSGIVAPVEATKLSFEVQGKIQTIEVNLGNEVVKGQELARLNQRNFNLGLQSAQAQYQQAKATLIDARNSHRRYEQLLKQGVVSQSGFDNAKATYDASKSAADVAQAQLDIASKNLQDSILLAPYDGIITKRLYEPSQQISAGQSLFEIEGKHGLEVHVMVPETLIRELRQLSILPIHFPVLPELTMQGQITEIGTRAEYANAFPVTAVLEGDNPLLRAGMTAEVDFSFSGTGRTGHTGDVFRIPATALSAGLEQKAYVFVYNPDSQQVIKTQVQTENIFKNEVFISSGLKQGDIIAIAGVAFLRDGQQVSLTDNNVQRFN
MGSDKIHHHHHHMRALVLAAGKGTRMKSKIPKVLHPLSGRPMIEWVIETAGKVAQKVGVVLGFEAELVRKALPEWVDVFVQGEQLGTAHAVMCAKDFIEPGDDVLILYGDVPLISENTLKRMIEEHRKGADVTILVADLEDPSGYGRVIQDGDKYRIIEDTDLPEELKSVTTINTGFYVFSGDFLLRALPEIKNENAKGEYYLTDAVNFAEKVRVVRTDDLLEITGVNTRKTLVWLEEQLRMRKIEELLENGVTILDPATTYIHYSVEIGMDTVIYPMTFIEGKSRVGENCEIGPMTRIVDCEIGNNVKITRSECFKSVIEDDVSVGPFARLREGTILKKSSKIGNFVEIKKSTIGEGTKAQHLSYIGDAFVGKNVNVGAGTITCNYDGKKKNPTFIEDGAFIGSNSSLVAPVRIGKGALIGAGSVITEDVPPYSLGLGRARQVVKEGWVLKKRKEE
MGSDKIHHHHHHMRDFLKSAFGRSKPKQLRILPQDVTIEIGQGQTLLEAALANGIAYPHDCTVGTCASCKTRLKQGRVREATPFGYTLSKDELDAGYILACQAFPKDELTVVEIDSSAGDLMPAEKYTANIIATEPLTHDILRVTVQTDRAVSYAAGQYANLRKAGGGRARSYSFANAPQRKGRTLLEFYIRKVPGGEFTESLFGGELKGVSLEMEAPLGTFHLRAGDSHMVCIAGGSGLAPLVSILEHARGNRIKRDCTLLFGARTQADLYQLDAIGSIASNWQGDFRFIPVLSDEPLDSDWKGARGLVTDHIAPGFCEGGEGYLCGPPLMIDAAIASLAKHGIPLEKVFYDKFTDSRDR
MGSDKIHHHHHHMREHDEGLLNGITPDRIRDHIRALEGVRHPLAAPEALERAAGYIRETFGSLGYPVADHLFMDGGREFANIIATHTGGSKSGRRVLVVAHYDTVTTTPGADDNASGVAVLLELATILKCLRFERCLQFVAVTLEENEDEHNPRDLGTRGSRALAAHARREGWEIEGAVVLESVAYAGDAVVQRTPAGIPFTVPATGNFIGVIGNEASRGMVDRFGQAVGSREAGLPWVPLVVPGNGGLLPDSRRSDHAPFWDHGYKAIMLTDTTNFRNPHYHQPSDTLETLNLDFAVQVCRATAALLLDIAKASEP
MGSDKIHHHHHHMREYIKEGIKLAVTNIPEDVVSAIREALEREESKIAKYNLEMILKAIDISRKEGIPVCQDTGTPIFFVRTNGPINKIYDEIVKGVEIATREVPLRPNALHVLDGKVIGNVPEVHFEPGKETLISILMKGGGSENCTALFPLTPAEGLEGVKNKVIEHVQSCGGKPCPPIIVGIGIASPAEKAIILAKKALLRRISERHPNEKLAKFERELLEEINSLGIGPMGLGGRTTALDVKVEVETRHPASYIVGVVIQCWAHRRAFIKVSEGGVKIWQ
MGSDKIHHHHHHMRFTEGLWRLREGVQLFRPEQVYEYSCDGKKLILRSPFRRVEHRGQTLQGPVFEIEISSPFENVIRIRFRHFKGVLEKPPYYEIYQDESFTPDIKETEGSFIFTSGKAKAIIRKNPFGVEFFYEDRFLTKSDLGYAVAPEGRFCLERLHLSVGEMIYGLGERFSAFVKNAQRVVMWNEDAGTISDMTYKNIPFYVSIRKYGVFVNDPGKVDFEIATEHVEKVQFSVKGETLDYFIIAGKDLKEVLERYTLLTGRPELPPAWSFGLWLTTSFTTQYDERTVMEFVDGMRERDIPLHVFHFDCFWMKEFHWVDLEWNRENFPDPEGLLKRLKEKGLKVCVWINPYVSQFSSLFDEGKEKGYFLKKPDGDVWQTDDWQPGMAIIDFTNPEVRKWFASKLERLIDMGVDCFKTDFGEKIPTDVVYYDGSDPEKMHNYYTYLYNKVVFETIERKLGKRNAVVFARSATAGSQKFPVHWGGDCLASYESMAETLRGGLSLALCGFGFWSHDIGGFEDITTPDLYKRWVAFGLLSSHSRLHGNSMYKVPWNFDEEAVEVLRFFTKLKCKLMPYIFASAVEVHERGIPVMRPMILEFPDDPTCLYLDRQYMLGESLLVAPIFSETGEVTYYLPEGVWTHFLTGERVEGGRWRTEKYDYFGLPLFTRPNSIIPTGSVDDRPDYDYADGVTLNVFEISNKTAHVYNTRGEVELSVKVERKGNEIHVEVLKDSRKPWKLLFWNERLEAVEGAETRELEKGTEVVLSFQRAILKTK
MGSDKIHHHHHHMRIEVVNVSHIFHRGTPLEKKALENVSLVINEGECLLVAGNTGSGKSTLLQIVAGLIEPTSGDVLYDGERKKGYEIRRNIGIAFQYPEDQFFAERVFDEVAFAVKNFYPDRDPVPLVKKAMEFVGLDFDSFKDRVPFFLSGGEKRRVAIASVIVHEPDILILDEPLVGLDREGKTDLLRIVEKWKTLGKTVILISHDIETVINHVDRVVVLEKGKKVFDGTRMEFLEKYDPRFFTSKMLVMRRLVLKGEDPFSMSDDELLERVCNS
MGSDKIHHHHHHMRIILASSSPRRRQLMELLGIEFEVEKPDVEEEFLESPEETVRELSLRKAEWVFKKRKEEEILVIGSDTVVVLDGNILGKPESLEEAKGMLKKLSGKWHVVYTGVAFVSSETKDVIVSSTKVRFRELPESVIDYYVEKYRPLDKAGAYGIQDFAAVFVEKIEGDFFTVVGFPLGMVWQYLYEKGWWKVASKREDDKGGARVAFG
MGSDKIHHHHHHMRILISPPMRFGKEFLGGMRRTLEVYSRMGEEVYLCVDERTLPQVDPEISPLLSKFHLVSSSSTDKKTYLKGFLNCLKYARKVDVLISYSEYSLSVYYTWLLSLFSRKPFIVVVHHVTEEIRGSKFLRTVIARSKGIICLDNPEVYEELKSLFPNKVILTSTNGVSVEDYYTSEEKICDGIFVGNYGERKGSRYLFQIWDKVNEKIDAKLCIIGKGWSEIPKNSVYYGFVTEREKIDLLAKSKVFVFPSLYEGFALAVTEALSAYLPVVTWDLKWSERYPVAIRVTYPDISSFAEEVVKLLKDEKLRKSIGEKSRELAKTLNWEKAAEMEKKAIYKIMESK
MGSDKIHHHHHHMRILLIHQNFPGQFKHLAPALVANGHEVRTLTLRQDLPDQWQGVTVHRYRAQRNSSPTVHPWVGDFETKVIRGEACFRAALQLRNQGYQPDLILAHPGWGETLFLQDVWPAAKLAIYCEFYYRSAGSDVDFDPEFQRPQGEEDTACRLQLKNLIYTMQGDRVTAGIAPTHWQADQFPEPLRSKITVVHDGIDTEAIAPNPSATITLNNQLKLGRNDEVITFVNRNLEPYRGYHIFMRSLPEILQQRPKARVILVGGDDVSYGARPPAGTWKQIFLKEVADRLDLSRVHFVGKIPYNAFLSLLQVSSVHVYLTYPFVLSWSLIEAMSCGCAIVASDTAPVREVISDGETGRLVNFFDPAGLAATVSELLASPSARAKLGKKARLFAQNHYDLQRVCLPQQMQWVRSLA
MGSDKIHHHHHHMRILLSVSRFEDELIEILDRLDETYEIFADNDCFEILKDRIPRIRPFERDDFDLLYLNWRDLPSEKREEKILSTIDENRTLLFLKAIKNYREKLVVTTLEDLKLTFSEIERAGDVSLQTRRYLLLKGLAHFLKVHSEVLESLSDLFFIKDWKAIVLERLQEGIKAPVSLLPVSIPPELVEDIGLASHLIRFLPQKACVLVKNGKIVYASSTGDLPEIEGGVFALKGVFRGEKKFDFILAEDFEGDVEGLRIKDLLHQEEGLVLLGASGYLREPVPTNDFTEVLSMHPVFDSCAVTKEGKLVLHVVELNRSDVINALEKIDLSGTEVAFNFPISDEEKAELKQKGVKKVSWIDSRRIWRRC
MGSDKIHHHHHHMRILRVAQDIFPDKVGGAPYHIHALSRDQAEMGHDVTVLTVSNDQSKPQTEQRAGYTLVRLSPRIELFGNALFAGTVKYLRNAREYDVVHAHSHLFFSSNLTAAYSRVTDIPLAVTCHGLMSQRVPEWFSRFHLNTVGRFTYNAADVLFSYTAPERERLRDLGVSSDIRVIHNGIDVDRFTPVGATYDRITDATGPAVVFVGRLVEGKRPRDVLKAFQTVQNNIPEAKLFFCGDGPLRDKLEQIVERENMRESIRFLERVPYQEMPAVYRAADLFVLASRTEGFPRSVMESMACATPILSTRLEQTEQVIEQAGRTVPVGDTTALADAMSSMLDDRAALRKLGQAGREIVMREYDWSETVEQTTQTLGTISTSTPSQQQVDSGQAEEQVIPAGSNTEHEQ
MGSDKIHHHHHHMRIPEEIIKLVDTPEFQRLRGVKQLGLANLVYPGANHTRFEHSLGTWYLARKLSLELQLPREDSLLIQLAALLHDIGHGPFSHTFERIYRDRLDFHDHMEVSRRIVEGKIQICEDGGELPDIISSLGYEPREVGELIVGKHKKRYLRMIIHGDIDVDQLDYLTRDAHYTGVAHGIIDLERLLTVMRVFNGELVIDEKGIEAVEGMLVARSLMYSRVYFHRTVKIAEGMLIRAVEFALDEGELEDFWKMTDDRLVIELEDLGDFPGDIIRRIRRRKLFKAAVIIGPEDLTAEEKKSLTTLYRSQKKRKKIESELAEIVGAREGEVMVELSIPELILSEPRLKQVEVNVLLSGGKVEPIGKVTPLASAIKRRQTPRWILLVATLPEYMEGVKRVWREVILE
